The values below come from doi:10.1101/2023.03.13.532385.

Test [1] has as its target human alpha-synuclein wild-type (human) (UniProt P37840). Description: co-sedimentation.
The target of test [2] is composite αS/N-protein fibrils (fibril strain s1, from plateau p1) (human | SARS-CoV-2) (UniProt P37840). The test can be described thus: co-sedimentation.

“human alpha-synuclein wild-type (from UniProt P37840 1-140) (natural protein)” returned a αS aggregated into fibrils at p2 in test [1] of 24 µM. This substance also registered a αS aggregated into fibrils at p1 in test [2] of 8 µM.
